Article PMC12661054, “The CIP2A-TOPBP1 axis facilitates mitotic DNA repair via MiDAS and MMEJ” (Nature Communications, 2025)
Square brackets hold non-standard residues; d marks the D form. Ends that are not written are not given here. fluorescein = fluorescein label on the N-terminus; pT = C[C@@H](OP(=O)(O)O)[C@H](N)C(=O)O

Target: T1, GST-TOPBP1(BRCT0-2 1-290) K250E (human, UniProt Q92547 1-290, K250E)
T1 construct: TOPBP1, human, residues 1-290 (BRCT0-2); purified as the wild type; no cleavage of GST described; also called BRCT 2 (K250E); source: E. coli BL21(DE3), purified (HiTrap GST, Superdex 200)
Experiment: fluorescence polarisation; 100 nM fluorescein-labelled SLX4 peptide, increasing concentrations of TOPBP1 BRCT fragment; room temperature; 25 mM HEPES pH 7.5, 150 mM NaCl, 1 mM EDTA, 0.25 mM TCEP, 0.002% Tween 20; single site with non-specific component
Settings: both partners purified

B1: Flu-SLX4_pT1260 (peptide)
peptide: fluorescein-GYGTSWLVPA[pT]PLASRSR
modifications: also: phosphothreonine at Thr1260 (position 4 or 11)
notes: residues before the SLX4 stretch, not SLX4; SLX4, human, amino acids 1253-1267, pT1260; also called fluorescein tagged SLX4 pT1260-containing peptide; pThr1260 SLX4 peptide; source: synthetic peptide
**Q.** Does B1 bind?
**A.** binds
